Earlier results, collected in paper PMC10035860.

Target: growth hormone receptor (Homo sapiens) (UniProt P10912)
UniProt P10912, sequence (P10912 19-638): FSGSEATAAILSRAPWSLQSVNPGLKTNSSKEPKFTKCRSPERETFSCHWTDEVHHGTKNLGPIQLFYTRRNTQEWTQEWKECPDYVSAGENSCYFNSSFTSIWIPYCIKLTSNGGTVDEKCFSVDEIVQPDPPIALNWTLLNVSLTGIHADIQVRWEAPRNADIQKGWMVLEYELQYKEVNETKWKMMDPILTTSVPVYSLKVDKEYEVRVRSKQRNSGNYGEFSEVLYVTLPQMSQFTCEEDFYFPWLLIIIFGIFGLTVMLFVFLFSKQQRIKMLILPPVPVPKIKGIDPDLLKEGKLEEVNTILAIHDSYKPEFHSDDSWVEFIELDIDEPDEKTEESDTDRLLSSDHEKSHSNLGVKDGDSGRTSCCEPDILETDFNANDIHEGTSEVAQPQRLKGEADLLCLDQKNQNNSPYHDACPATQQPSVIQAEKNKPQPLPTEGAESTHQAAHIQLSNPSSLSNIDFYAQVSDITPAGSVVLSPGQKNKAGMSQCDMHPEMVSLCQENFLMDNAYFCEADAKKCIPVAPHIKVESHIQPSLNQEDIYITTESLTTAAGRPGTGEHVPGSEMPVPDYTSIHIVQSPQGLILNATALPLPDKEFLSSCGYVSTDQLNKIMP

growth hormone, sequence (P01241 27-217): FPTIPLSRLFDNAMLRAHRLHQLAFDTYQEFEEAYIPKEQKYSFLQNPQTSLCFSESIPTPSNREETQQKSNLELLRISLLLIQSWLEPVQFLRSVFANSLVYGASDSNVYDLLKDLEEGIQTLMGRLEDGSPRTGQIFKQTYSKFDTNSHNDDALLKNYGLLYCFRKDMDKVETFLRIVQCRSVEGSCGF

Kd: 0.3 nM
Substance: growth hormone (from UniProt P01241)
